Results: patent US7090848

Experiments:
Test in all cases: cell-based or functional assay
CCR1 = CCR1 (UniProt P32246)
CCR3 = CCR3 (UniProt P51677)
CCR4 = CCR4 (UniProt P51679)
CCR5 = CCR5 (UniProt P51681)
CXCR4 = CXCR4 (UniProt P61073)
Chain of UniProt P61073 (P61073 whole entry): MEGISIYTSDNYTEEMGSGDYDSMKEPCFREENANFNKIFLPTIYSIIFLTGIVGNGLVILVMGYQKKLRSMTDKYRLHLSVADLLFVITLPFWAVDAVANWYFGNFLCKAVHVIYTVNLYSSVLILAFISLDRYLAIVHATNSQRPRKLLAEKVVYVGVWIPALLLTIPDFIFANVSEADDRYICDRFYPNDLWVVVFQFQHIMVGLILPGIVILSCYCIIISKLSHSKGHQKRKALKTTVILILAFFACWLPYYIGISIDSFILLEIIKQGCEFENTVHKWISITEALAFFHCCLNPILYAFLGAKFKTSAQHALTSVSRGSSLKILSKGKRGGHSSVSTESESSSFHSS

Chain of UniProt P51681 (P51681 whole entry): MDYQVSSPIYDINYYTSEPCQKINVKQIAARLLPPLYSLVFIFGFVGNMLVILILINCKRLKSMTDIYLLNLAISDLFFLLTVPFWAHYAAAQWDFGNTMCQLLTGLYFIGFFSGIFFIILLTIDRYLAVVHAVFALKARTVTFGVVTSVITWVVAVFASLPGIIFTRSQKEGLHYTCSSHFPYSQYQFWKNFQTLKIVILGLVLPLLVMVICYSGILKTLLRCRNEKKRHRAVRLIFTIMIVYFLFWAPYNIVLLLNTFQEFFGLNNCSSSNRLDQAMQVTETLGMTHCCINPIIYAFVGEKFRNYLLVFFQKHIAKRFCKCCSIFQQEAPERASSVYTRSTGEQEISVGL
Chain of UniProt P51677 (P51677 whole entry): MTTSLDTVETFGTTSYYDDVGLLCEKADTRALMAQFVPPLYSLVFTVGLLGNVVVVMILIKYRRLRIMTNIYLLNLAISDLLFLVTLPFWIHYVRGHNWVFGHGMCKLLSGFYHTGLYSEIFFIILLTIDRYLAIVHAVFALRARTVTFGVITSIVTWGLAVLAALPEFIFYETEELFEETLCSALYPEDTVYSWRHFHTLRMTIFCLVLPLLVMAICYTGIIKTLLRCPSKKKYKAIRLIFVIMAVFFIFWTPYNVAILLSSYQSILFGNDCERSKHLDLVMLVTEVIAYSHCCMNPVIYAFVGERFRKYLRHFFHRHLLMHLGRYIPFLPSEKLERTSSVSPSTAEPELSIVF
Chain of UniProt P51679 (P51679 whole entry): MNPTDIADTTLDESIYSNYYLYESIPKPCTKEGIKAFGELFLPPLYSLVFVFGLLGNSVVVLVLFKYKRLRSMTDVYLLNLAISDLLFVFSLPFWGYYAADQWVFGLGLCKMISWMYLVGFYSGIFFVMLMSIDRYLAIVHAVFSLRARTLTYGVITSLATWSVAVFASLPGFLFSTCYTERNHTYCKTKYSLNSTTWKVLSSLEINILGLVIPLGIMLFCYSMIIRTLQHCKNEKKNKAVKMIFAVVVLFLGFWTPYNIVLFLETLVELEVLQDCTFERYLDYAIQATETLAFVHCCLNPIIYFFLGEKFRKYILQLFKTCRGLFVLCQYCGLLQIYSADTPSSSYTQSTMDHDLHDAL
Chain of UniProt P32246 (P32246 whole entry): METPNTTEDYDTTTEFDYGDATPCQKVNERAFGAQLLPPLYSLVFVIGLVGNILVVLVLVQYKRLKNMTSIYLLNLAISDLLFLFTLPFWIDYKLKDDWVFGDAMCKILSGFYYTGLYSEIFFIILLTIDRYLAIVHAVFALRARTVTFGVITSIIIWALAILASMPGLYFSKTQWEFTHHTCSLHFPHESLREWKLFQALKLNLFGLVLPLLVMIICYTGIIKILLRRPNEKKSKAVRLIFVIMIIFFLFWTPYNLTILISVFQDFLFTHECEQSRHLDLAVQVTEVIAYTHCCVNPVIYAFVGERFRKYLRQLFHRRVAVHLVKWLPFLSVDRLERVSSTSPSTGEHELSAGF

Substance	Infectivity Titer In HOS-CD4 Cells Expressing CCR1 (CCR1)	Infectivity Titer In HOS-CD4 Cells Expressing CCR3 (CCR3)	Infectivity Titer In HOS-CD4 Cells Expressing CCR4 (CCR4)	Infectivity Titer In HOS-CD4 Cells Expressing CCR5 (CCR5)	Infectivity Titer In HOS-CD4 Cells Expressing CXCR4 (CXCR4)
HIV-1 AD8 envelope	< 4 titer (1:x)	< 4 titer (1:x)	< 4 titer (1:x)	256 titer (1:x)	< 4 titer (1:x)
HIV-1 NL4-3 envelope	< 4 titer (1:x)	< 4 titer (1:x)	< 4 titer (1:x)	32 titer (1:x)	> 256 titer (1:x)
